B1: Next to BRCA1 gene 1 protein (Homo sapiens), Q14596 (parent)
chain: MEPQVTLNVTFKNEIQSFLVSDPENTTWADIEAMVKVSFDLNTIQIKYLDEENEEVSINSQGEYEEALKMAVKQGNQLQMQVHEGHHVVDEAPPPVVGAKRLAARAGKKPLAHYSSLVRVLGSDMKTPEDPAVQSFPLVPCDTDQPQDKPPDWFTSYLETFREQVVNETVEKLEQKLHEKLVLQNPSLGSCPSEVSMPTSEETLFLPENQFSWHIACNNCQRRIVGVRYQCSLCPSYNICEDCEAGPYGHDTNHVLLKLRRPVVGSSEPFCHSKYSTPRLPAALEQVRLQKQVDKNFLKAEKQRLRAEKKQRKAEVKELKKQLKLHRKIHLWNSIHGLQSPKSPLGRPESLLQSNTLMLPLQPCTSVMPMLSAAFVDENLPDGTHLQPGTKFIKHWRMKNTGNVKWSADTKLKFMWGNLTLASTEKKDVLVPCLKAGHVGVVSVEFIAPALEGTYTSHWRLSHKGQQFGPRVWCSIIVDPFPSEESPDNIEKGMISSSKTDDLTCQQEETFLLAKEERQLGEVTEQTEGTAACIPQKAKNVASERELYIPSVDLLTAQDLLSFELLDINIVQELERVPHNTPVDVTPCMSPLPHDSPLIEKPGLGQIEEENEGAGFKALPDSMVSVKRKAENIASVEEAEEDLSGTQFVCETVIRSLTLDAAPDHNPPCRQKSLQMTFALPEGPLGNEKEEIIHIAEEEAVMEEEEDEEDEEEEDELKDEVQSQSSASSEDYIIILPECFDTSRPLGDSMYSSALSQPGLERGAEGKPGVEAGQEPAEAGERLPGGENQPQEHSISDILTTSQTLETVPLIPEVVELPPSLPRSSPCVHHHGSPGVDLPVTIPEVSSVPDQIRGEPRGSSGLVNSRQKSYDHSRHHHGSSIAGGLVKGALSVAASAYKALFAGPPVTAQPIISEDQTAALMAHLFEMGFCDRQLNLRLLKKHNYNILQVVTELLQLNNNDWYSQRY
B2: Next to BRCA1 gene 1 protein (Homo sapiens), Q14596 (parent)
chain: B1 chain
partner: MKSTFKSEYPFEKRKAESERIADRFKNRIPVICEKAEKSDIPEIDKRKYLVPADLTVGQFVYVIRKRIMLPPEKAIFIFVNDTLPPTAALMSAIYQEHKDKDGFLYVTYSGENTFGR

Key:
[1] = variants of: B1; conditions: with gbrap_human GABARAP
[2] = variants of: B1; conditions: with gbrl2_human GABARAPL2, P60520
Sequence of gbrl2_human GABARAPL2, P60520 (P60520 whole entry): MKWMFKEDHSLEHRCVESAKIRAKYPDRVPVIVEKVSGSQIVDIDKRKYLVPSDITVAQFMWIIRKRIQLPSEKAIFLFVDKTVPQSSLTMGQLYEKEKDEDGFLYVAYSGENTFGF

[3] = variants of: B1; conditions: with mlp3b_human MAP1LC3B
atg8_yeast ATG8, P38182 = variants of: B2; conditions: with atg8_yeast ATG8, P38182

Variant: Y732A
- effect of a mutation on the interaction [1]: decreasing interaction
- effect of a mutation on the interaction [2]: decreasing interaction
- effect of a mutation on the interaction [3]: decreasing interaction

Variant: Y732A
- effect of a mutation on the interaction (atg8_yeast ATG8, P38182): decreasing interaction

Source: IntAct's records for PubMed 19250911
